In the RNAGym collection of RNA variant scans (doi:10.7554/elife.90254) one finds self-cleavage data, which are given here for 56 variants.

B1: LINE1-mini (parent)
chain: GGCAGAGCUCAACACAGCGUGGCAAAGUGGCUGUGGCUAGACUGCC

The variants in the series derive from B1. Kind of series: self-cleavage, relative activity (ratio to wild type); higher = more cleavage; in vitro, sequencing; the parent is a self-cleaving ribozyme.
As to GGCAGAGCUGAACACAGCGUGGCAAAGUGGCUGUGUCUAGACUGCC, the self-cleavage was 0.02. Take GGCAGAGCUGAACACAGCGUGGCAAAGUGGCUGUGACUAGACUGCC: the self-cleavage stood at 0.01. Turning to GGCAGAGCUGAACACAGCGUGGCAAAGUCGCUGUGGCUAGACUGCC, the self-cleavage is 0.04. Consider GGCAGAGCUGAACACAGCGUGGCAAAGUUGCUGUGGCUAGACUGCC, for which the self-cleavage is 0.08. Turning to GGCAGAGCUGAACACAGCGUGGCAAAGUAGCUGUGGCUAGACUGCC, the self-cleavage was 0.1. For GGCAGAGCUGAACACAGCGUGGCAAAGUGGCCGUGGCUAGACUGCC, the self-cleavage turned out to be 0.03. As for GGCAGAGCUGAACACAGCGUGGCAAAGUGGCGGUGGCUAGACUGCC, the self-cleavage was 0.02.

As to GGCAGAGCUGAACACAGCGUGGCAAAGUGGCAGUGGCUAGACUGCC, the self-cleavage amounted to 0.02.

For GGCAGAGCUGAACACAGCGUGGCAAAGUGGCUGUGGCUAGAGUGCC, the self-cleavage is 0.03. Turning to GGCAGAGCUGAACACAGCGUGGCAAAGUGGCUGUGGCUAGAAUGCC, the self-cleavage came to 0.03. On to GGCAGAGCUGAACACAGCGUGGCAAAGUGGCUGUGGCUAGAUUGCC, for which the self-cleavage came to 0.03.

Consider GGCAGAGCUGAACACAGCGUGGCAAAGUGGCUGUGGCUAGACUUCC, for which the self-cleavage came out at 0.04.

Consider GGCAGAGCUGAACACAGCGUGGCAAAGUGGCUGUGGCUAGACUACC, for which the self-cleavage was determined as 0.05. Take GGCAGAGCUGAACACAGCGUGGCAAAGUGGCUGUGGCUAGACUCCC: the self-cleavage came to 0.06. Consider GGCAGAGCUGAACACAGCGUGGCAAAGUGGCUGUGGCUAGCCUGCC, for which the self-cleavage was determined as 0.01. GGCAGAGCUGAACACAGCGUGGCAAAGUGGCUGUGGCUAGGCUGCC: the self-cleavage is 0.05. Regarding GGCAGAGCUGAACACAGCGUGGCAAAGUGGCUGUGGCUAGUCUGCC, the self-cleavage was 0.05. In the case of GGCAGAGCUGAUCACAGCGUGGCAAAGUGGCUGUGGCUAGACUGCC, the self-cleavage came to 0.03. Regarding GGCAGAGCUGAGCACAGCGUGGCAAAGUGGCUGUGGCUAGACUGCC, the self-cleavage amounted to 0.03. For the variant GGCAGAGCUGAACACAGCGUAGCAAAGUGGCUGUGGCUAGACUGCC, the self-cleavage is 0.18.

Regarding GGCAGAGCUGAACACAGCGUCGCAAAGUGGCUGUGGCUAGACUGCC, the self-cleavage worked out at 0.07.

Consider GGCAGAGCUGAACACAGCGUUGCAAAGUGGCUGUGGCUAGACUGCC, for which the self-cleavage is 0.14.

As to GGCAGAGCUUAGCACAGCGUGGCAAAGUGGCUGUGGCUAGACUGCC, the self-cleavage stood at 0.02. With GGCAGAGCUUAUCACAGCGUGGCAAAGUGGCUGUGGCUAGACUGCC, the self-cleavage is 0.08. Under GGCAGAGCUUACCACAGCGUGGCAAAGUGGCUGUGGCUAGACUGCC stands 0.02; under GGCAGAGCUGAACACAGCGUGGCAAAGUGGCUGUCGCUAGACUGCC, 0.02. Under GGCAGAGCUGAACACAGCGUGGCAAAGUGGCUGUAGCUAGACUGCC stands 0.03. For GGCAGAGCUGAACACAGCGUGGCAAAGUGGCUGUUGCUAGACUGCC, the self-cleavage came out at 0.04. For the variant GGCAGAGCUGAACACAGCGUGGCAAAGUGGCUGUGGCCAGACUGCC, the self-cleavage was found to be 0.02.

As to GGCAGAGCUGAACACAGCGUGGCAAAGUGGCUGUGGCGAGACUGCC, the self-cleavage is 0.03. GGCAGAGCUGAACACAGCGUGGCAAAGUGGCUGUGGCAAGACUGCC: the self-cleavage amounted to 0.06. For the variant GGCAGAGCUGAACACAGAGUGGCAAAGUGGCUGUGGCUAGACUGCC, the self-cleavage turned out to be 0.08. GGCAGAGCUGAACACAGGGUGGCAAAGUGGCUGUGGCUAGACUGCC: the self-cleavage turned out to be 0.04. Under GGCAGAGCUGAACACAGUGUGGCAAAGUGGCUGUGGCUAGACUGCC stands 0.09. Under GGCAGAGCUGAACACAGCGUGGCAAAGUGGCUGUGGCUAGACUGGC stands 0.02; under GGCAGAGCUGAACACAGCGUGGCAAAGUGGCUGUGGCUAGACUGUC, 0.14. For GGCAGAGCUGAACACAGCGUGGCAAAGUGGCUGUGGCUAGACUGAC the value was 0.07; for GGCAGAGCUGAACACAGCAUGGCAAAGUGGCUGUGGCUAGACUGCC, 0.1. Consider GGCAGAGCUGAACACAGCUUGGCAAAGUGGCUGUGGCUAGACUGCC, for which the self-cleavage turned out to be 0.11.

As for GGCAGAGCUGAACACAGCCUGGCAAAGUGGCUGUGGCUAGACUGCC, the self-cleavage is 0.06. Consider GGCAGAGCUGAACACAGCGUGGCAAAGUGUCUGUGGCUAGACUGCC, for which the self-cleavage turned out to be 0.22. As to GGCAGAGCUGAACACAGCGUGGCAAAGUGACUGUGGCUAGACUGCC, the self-cleavage came out at 0.21. In the case of GGCAGAGCUGAACACAGCGUGGCAAAGUGCCUGUGGCUAGACUGCC, the self-cleavage turned out to be 0.2.

GGCAGAGCUUAACACAGCGUGGCAAAGUGGCUGUGGCUAGACUGCC: the self-cleavage came out at 0.34. For GGCAGAGCUGAACACAGCGUGGCAAAGUGGCUGUGGCUUGACUGCC, the self-cleavage stood at 0.16. Regarding GGCAGAGCUGAACACAGCGUGGCAAAGUGGCUGUGGCUGGACUGCC, the self-cleavage was 0.03.

Take GGCAGAGCUGAACACAGCGUGGCAAAGUGGCUGUGGCUCGACUGCC: the self-cleavage was 0.02. Regarding GGCAGAGCUGAACACAGCGUGGCAAAGUGGUUGUGGCUAGACUGCC, the self-cleavage was 0.05.

For the variant GGCAGAGCUGAACACAGCGUGGCAAAGUGGAUGUGGCUAGACUGCC, the self-cleavage was determined as 0.04.

For GGCAGAGCUGAACACAGCGUGGCAAAGUGGGUGUGGCUAGACUGCC, the self-cleavage stood at 0.02. For the variant GGCAGAGCUGAACAGAGCGUGGCAAAGUGGCUGUGGCUAGACUGCC, the self-cleavage came to 0.03. For the variant GGCAGAGCUGAACAUAGCGUGGCAAAGUGGCUGUGGCUAGACUGCC, the self-cleavage was 0.09. GGCAGAGCUGAACAAAGCGUGGCAAAGUGGCUGUGGCUAGACUGCC: the self-cleavage is 0.04. As to GGCAGAGCUGAACACAGCGUGGCCAAGUGGCUGUGGCUAGACUGCC, the self-cleavage was 0.06. For GGCAGAGCUGAACACAGCGUGGCUAAGUGGCUGUGGCUAGACUGCC the value was 0.15; for GGCAGAGCUGAACACAGCGUGGCGAAGUGGCUGUGGCUAGACUGCC, 0.1.
